Measurements: patent US11833215B2, “CKIT antibody drug conjugates” (Novartis AG, priority 2014, dated 2023)
“Also recorded” adds a separate entry of the source.

Experiments:
human cKIT = target: T1, human cKIT (Homo sapiens, UniProt P10721); assay: SPR (Biacore) affinity measurement; type: binding; settings: 25° C., 1:1 model
T1 construct: Human cKIT tr. variant 2 , residues 26-520-TAG; made in house; host or cells: HEK293 derived cell line 293FS, transient transfection
Experimental: (§1) Affinity of the antibodies to cKIT species orthologues and also to cKIT was determined using SPR technology using a Biacore® 2000 instrument (GE Healthcare, Pittsburgh, PA) and with CM5 sensor chips.
(§2) Briefly, HBS-P (0.01 M HEPES, pH 7.4, 0.15 M NaCl, 0.005% Surfactant P20) supplemented with 2% Odyssey® blocking buffer (Li-Cor Biosciences, Lincoln, NE) was used as the running buffer for all the experiments. The immobilization level and analyte interactions were measured by response unit (RU). Pilot experiments were performed to test and confirm the feasibility of the immobilization of the anti-human Fc antibody (Catalog number BR100839, GE Healthcare, Pittsburgh, PA) and the capture of the test antibodies.
(§3) For kinetic measurements, the experiments were performed in which the antibodies were captured to the sensor chip surface via the immobilized anti-human Fc antibody and the ability of the cKIT proteins to bind in free solution was determined. Briefly, 25 μg/ml of anti-human Fc antibody at pH 5 was immobilized on a CM5 sensor chip through amine coupling at flow rate of 5 μl/minute on all two flow cells to reach 10,500 RUs. 0.1-1 μg/ml of test antibodies were then injected at 10 μl/min for 1 minute. Captured levels of the antibodies were generally kept below 200 RUs. Subsequently, 3.125 −50 nM of cKIT receptor extracellular domains (ECD) were diluted in a 2-fold series and injected at a flow rate of 40 μl/min for 3 min over both reference and test flow cells. Table of tested ECDs is listed below (Table 6). Dissociation of the binding was followed for 10 min. After each injection cycle, the chip surface was regenerated with 3 M MgCl2 at 10 μl/min for 30 seconds.

mouse cKIT = target: T2, mouse cKIT (Mus musculus, UniProt P05532); assay: SPR (Biacore) affinity measurement; type: binding; settings: 25° C., 1:1 model
T2 construct: cKIT receptor extracellular domains (ECD) were diluted in a 2-fold series
T2 sequence (P05532 25-527 limits assumed): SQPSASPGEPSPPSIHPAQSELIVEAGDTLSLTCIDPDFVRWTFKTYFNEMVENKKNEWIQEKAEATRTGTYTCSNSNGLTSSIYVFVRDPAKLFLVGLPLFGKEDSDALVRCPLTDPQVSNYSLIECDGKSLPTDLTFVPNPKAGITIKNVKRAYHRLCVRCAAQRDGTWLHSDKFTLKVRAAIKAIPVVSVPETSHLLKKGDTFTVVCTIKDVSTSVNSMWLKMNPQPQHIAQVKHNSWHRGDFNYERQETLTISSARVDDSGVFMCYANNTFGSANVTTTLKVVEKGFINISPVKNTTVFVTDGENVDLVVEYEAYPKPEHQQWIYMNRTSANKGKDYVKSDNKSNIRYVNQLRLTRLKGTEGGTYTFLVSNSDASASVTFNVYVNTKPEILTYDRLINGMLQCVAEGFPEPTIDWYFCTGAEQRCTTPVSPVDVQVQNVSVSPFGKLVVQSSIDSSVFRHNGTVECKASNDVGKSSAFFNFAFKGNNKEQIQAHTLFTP
Experimental: as §1, §2, §3

rat cKIT = assay: SPR (Biacore) affinity measurement; type: binding; settings: 25° C., 1:1 model
Sequence of rat cKIT (as listed by the source): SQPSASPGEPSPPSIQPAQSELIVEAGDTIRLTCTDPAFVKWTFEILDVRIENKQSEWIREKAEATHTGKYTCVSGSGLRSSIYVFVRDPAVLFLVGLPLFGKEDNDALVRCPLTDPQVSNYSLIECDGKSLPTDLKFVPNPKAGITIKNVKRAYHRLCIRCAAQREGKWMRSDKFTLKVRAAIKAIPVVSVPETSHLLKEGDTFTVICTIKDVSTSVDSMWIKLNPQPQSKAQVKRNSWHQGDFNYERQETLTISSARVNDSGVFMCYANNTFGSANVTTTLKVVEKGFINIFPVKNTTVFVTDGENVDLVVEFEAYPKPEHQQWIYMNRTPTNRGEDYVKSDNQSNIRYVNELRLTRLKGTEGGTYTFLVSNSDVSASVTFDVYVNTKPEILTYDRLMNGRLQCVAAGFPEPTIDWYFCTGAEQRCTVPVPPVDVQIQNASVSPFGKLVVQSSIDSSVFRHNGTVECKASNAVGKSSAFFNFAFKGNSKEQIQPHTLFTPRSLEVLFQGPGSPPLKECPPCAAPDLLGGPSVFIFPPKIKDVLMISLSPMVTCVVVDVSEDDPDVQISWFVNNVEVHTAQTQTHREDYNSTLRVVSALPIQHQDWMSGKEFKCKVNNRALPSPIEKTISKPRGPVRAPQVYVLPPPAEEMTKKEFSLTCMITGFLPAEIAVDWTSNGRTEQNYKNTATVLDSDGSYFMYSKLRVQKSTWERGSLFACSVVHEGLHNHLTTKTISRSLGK
Experimental: as §1, §2, §3

[1] = tested on: surface cKIT on GIST-T1 cells; assay: cKIT Ab-mediated internalization by flow cytometry; type: cell-based; settings: 10 μg/ml, 37° C., 30 min to 24 hr
Experimental: The kinetics of cKIT antibody mediated internalization was evaluated by treating with antibody in a cell monolayer using a temperature shift method and flow cytometry readout. GIST-T1 (kindly provided by Dr. Takahiro Taguchi, Kochi U., Japan) cells were seeded at 2.5×10E5 cells/well in five 12-well tissue culture treated plates (BD Falcon 353043). The cells were incubated in a tissue culture incubator at 37° C. with 5% CO2 overnight. The following day medium was removed and replaced with 450 μl fresh medium. The cKIT antibodies NEG085, 20376 and an isotype control were prepared at 10×10 μg/ml concentration in appropriate cell culture medium and 50 μl of test cKIT antibody or isotype was added per well with final concentration of 10 μg/ml. All cells were incubated for 1 hr on ice, followed by two washes with 1 mL 1× Phosphate buffered saline (PBS) and resuspended in 500 μl cell culture medium. […] The following day, all samples were analyzed using the BD FACSCanto II 0 equipment using a HTS system (BD Biosciences, San Jose, CA). Samples were analyzed with FlowJo software to obtain the Geometric Mean values of fluorescence for the Phycoerythrin channel, FIG. 4A is a plot of % of initial cell surface binding vs Geometric Mean-PE 4° C. binding/Geometric Mean-PE timepoint at 37° C.×100.

T1 sequence (P10721 with tags, fused parts or gaps isoform P10721-2): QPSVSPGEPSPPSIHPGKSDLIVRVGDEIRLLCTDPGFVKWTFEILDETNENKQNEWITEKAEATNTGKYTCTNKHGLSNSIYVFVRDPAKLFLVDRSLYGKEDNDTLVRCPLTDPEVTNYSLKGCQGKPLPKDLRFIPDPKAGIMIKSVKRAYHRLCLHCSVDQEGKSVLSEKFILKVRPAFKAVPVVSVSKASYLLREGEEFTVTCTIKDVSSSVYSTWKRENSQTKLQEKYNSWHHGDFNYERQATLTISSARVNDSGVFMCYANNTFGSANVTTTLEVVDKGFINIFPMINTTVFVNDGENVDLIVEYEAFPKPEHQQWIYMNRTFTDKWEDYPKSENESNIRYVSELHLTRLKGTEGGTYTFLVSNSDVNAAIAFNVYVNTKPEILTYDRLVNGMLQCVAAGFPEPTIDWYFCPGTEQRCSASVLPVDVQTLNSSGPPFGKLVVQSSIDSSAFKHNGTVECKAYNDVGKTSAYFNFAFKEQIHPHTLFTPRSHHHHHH

B1: NEG085: anti-cKIT antibody of Table 3, VH SEQ ID NO 82, VL SEQ ID NO 91 (antibody, listed as Homo sapiens, V domains shown)
VH: EVQLVESGGGLVQPGGSLRLSCAASGFAFSGYYMAWVRQAPGKGLEWVANINYPGSSTYYLDSVKGRFTISRDNAKNSLYLQMNSLRAEDTAVYYCARGDYYGTTYWYFDVWGQGTTVTVSS
VL: DIQMTQSPSSLSASVGDRVTITCRASQSISSYLNWYQQKPGKAPKLLIYYTSRLQSGVPSRFSGSGSGTDFTLTISSLQPEDFATYYCQQGRRLWSFGGGTKVEIK
With B1 the “Affinity human cKIT (nM)” value (human cKIT) was “nanomolar level”, the “Affinity mouse cKIT (nM)” value (mouse cKIT) was “Not reactive” and the “Affinity to rat cKIT (nM)” value (rat cKIT) was “Not reactive”. The “internalization of surface cKIT on GIST-T1 cells” value [1] was “mediate rapid internalization; also recorded: rapidly internalized”.
